Numbering of substitutions follows the chain as printed.
T1: human TREM2 (human, UniProt Q9NZC2 19-174, limits assumed)
T1 construct: also called triggering receptor expressed on myeloid cells 2
T1 sequence: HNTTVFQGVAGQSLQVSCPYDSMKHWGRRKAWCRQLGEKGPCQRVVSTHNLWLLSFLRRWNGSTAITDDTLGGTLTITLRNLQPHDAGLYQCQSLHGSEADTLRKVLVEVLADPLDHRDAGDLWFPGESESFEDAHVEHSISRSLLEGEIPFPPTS

B1: V1 (antibody, V domains shown)
VH: EVQLVQSGAEVKKPGESLKISCKGSGYSFTSSWIAWVRQMPGKGLEWMGIIYPGDSDTRYSPSFQGQVTISADKSISTAYLQWSSLKASDTAMYFCARSRTFYYDSSDYFDYWGQGTLVTVSS
VL: DIQMTQSPSSVSASVGDRVTITCRASQGISSWLAWYQQKPGKAPKLLIYAASSLTNGVPSRFSGSGSGTDFTLTISSLQPEDFATYFCQQADSYPRTFGQGTKLEIK
notes: also called 6E7 variant V1
B2: V27 (antibody, V domains shown)
VH: B1 VH with S32Y, S61A, A97V
VL: B1 VL with T55Q, N56R, Y94F
notes: also called 6E7 variant V27; LV-103/HV-103
B3: V25 (antibody, V domains shown)
VH: B1 VH with T30G, S32Y, I50L
VL: B1 VL with T55A, Y94M
notes: also called 6E7 variant V25
B4: V14 (antibody, V domains shown)
VH: B1 VH with T30G, S32Y, S56Q, S99G
VL: B1 VL with S53R, T55Q, Y94F
notes: also called 6E7 variant V14
B5: V39 (antibody, V domains shown)
VH: B1 VH with T30G, S32Y, S61N, S99G
VL: B1 VL with T55V, Y94S
notes: also called 6E7 variant V39
B6: V5 (antibody, V domains shown)
VH: B1 VH with S32Y, I50T, S99Q
VL: B1 VL with T55Q, Y94H
notes: also called 6E7 variant V5
B7: V4 (antibody, V domains shown)
VH: B1 VH with T30G, S32Y, Y60V
VL: B1 VL with S53R, T55Q
notes: also called 6E7 variant V4
B8: V2 (antibody, V domains shown)
VH: B1 VH with Y27S, S32Y, S56G
VL: B1 VL with L54R, T55Q, S93R, Y94F
notes: also called 6E7 variant V2
B9: V28 (antibody, V domains shown)
VH: B1 VH with T30Q, S32Y, I50T, S99Q, Y103F
VL: B1 VL with T55Q, N56S, Y94L
notes: also called 6E7 variant V28
B10: V15 (antibody, V domains shown)
VH: B1 VH with T30A, S32Y, I50T
VL: B1 VL with S53W, T55Q
notes: also called 6E7 variant V15
B11: V16 (antibody, V domains shown)
VH: B1 VH with F29M, S32Y, S56G
VL: B1 VL with S53N, T55Q, Y94F
notes: also called 6E7 variant V16
B12: V48 (antibody, V domains shown)
VH: B1 VH with T30G, S32Y, T58V, S99M
VL: B1 VL with T55Q, N56T, Y94L
notes: also called 6E7 variant V48
B13: V40 (antibody, V domains shown)
VH: B1 VH with T30G, S32Y, T58V, S99Q, F110S
VL: B1 VL with T55Q, N56L, S93R, Y94F
notes: also called 6E7 variant V40
B14: V13 (antibody, V domains shown)
VH: B1 VH with T30G, S32Y, P62A, S99G
VL: B1 VL with T55Q, N56G, Y94M
notes: also called 6E7 variant V13
B15: V38 (antibody, V domains shown)
VH: B1 VH with T30G, S32Y, T58V, S99Q
VL: B1 VL with L54R, T55Q, Y94H
notes: also called 6E7 variant V38
B16: V41 (antibody, V domains shown)
VH: B1 VH with S32Y, I50T, S99Q
VL: B1 VL with T55Q, Y94F
notes: also called 6E7 variant V41
B17: V37 (antibody, V domains shown)
VH: B1 VH with F29H, S32Y, Q65A
VL: B1 VL with T55Q, N56W
notes: also called 6E7 variant V37
B18: V17 (antibody, V domains shown)
VH: B1 VH with T30G, S32Y
VL: B1 VL with L54R, T55Q, Y94S
notes: also called 6E7 variant V17
B19: V29 (antibody, V domains shown)
VH: B1 VH with T30K, S32Y, S99Q
VL: B1 VL with T55Q, Y94F
notes: also called 6E7 variant V29
B20: V3 (antibody, V domains shown)
VH: B1 VH with T30A, S32Y, G66D, S99G
VL: B1 VL with L54R, T55Q, S93R, Y94F
notes: also called 6E7 variant V3; LV-101/HV-101
B21: V26 (antibody, V domains shown)
VH: B1 VH with S32Y, A35G, I50T, S99Q, F102M, Y112A
VL: B1 VL with T55Q, N56R
notes: also called 6E7 variant V26
B22: V24 (antibody, V domains shown)
VH: B1 VH with S32Y, T58V
VL: B1 VL with T55Q, N56K, Y94F, R96H
notes: also called 6E7 variant V24
B23: V36 (antibody, V domains shown)
VH: B1 VH with S32Y, I34L
VL: B1 VL with L54R, T55Q
notes: also called 6E7 variant V36
B24: V91 (antibody, V domains shown)
VH: B1 VH with S32Y, G54D, S99Q
VL: B1 VL with T55Q, Y94F
notes: also called 6E7 variant V91
B25: V80 (antibody, V domains shown)
VH: B1 VH with S32Y, S99Q, T101N
VL: B1 VL with T55Q, Y94F
notes: also called 6E7 variant V80
B26: V92 (antibody, V domains shown)
VH: B1 VH with S32Y, S99Q, Y103H
VL: B1 VL with T55Q, Y94F
notes: also called 6E7 variant V92
B27: V71 (antibody, V domains shown)
VH: B1 VH with S32Y, S99Q
VL: B1 VL with T55Q, Y94E
notes: also called 6E7 variant V71
B28: V94 (antibody, V domains shown)
VH: B1 VH with S32Y, S99Q
VL: B1 VL with S52A, T55Q, Y94F
notes: also called 6E7 variant V94
B29: V78 (antibody, V domains shown)
VH: B1 VH with S28R, S32Y, S99Q
VL: B1 VL with T55Q, Y94F
notes: also called 6E7 variant V78
B30: V81 (antibody, V domains shown)
VH: B1 VH with S32Y, S99Q
VL: B1 VL with W32L, T55Q, Y94F
notes: also called 6E7 variant V81
B31: V82 (antibody, V domains shown)
VH: B1 VH with S32Y, S99Q
VL: B1 VL with A51G, T55Q, Y94F
notes: also called 6E7 variant V82
B32: V83 (antibody, V domains shown)
VH: B1 VH with S32Y, S99Q
VL: B1 VL with T55Q, D92V, Y94F
notes: also called 6E7 variant V83
B33: V90 (antibody, V domains shown)
VH: B1 VH with S32E, S99Q
VL: B1 VL with S31R, T55Q, Y94F
notes: also called 6E7 variant V90; LV-206/HV-206
B34: V93 (antibody, V domains shown)
VH: B1 VH with S32Y, S99Q
VL: B1 VL with S31G, T55Q, Y94F
notes: also called 6E7 variant V93
B35: V79 (antibody, V domains shown)
VH: B1 VH with S32Y, R59N, S99Q
VL: B1 VL with T55Q, Y94F
notes: also called 6E7 variant V79
B36: V12 (antibody, V domains shown)
VH: B1 VH with S28E, S32Y, T58V, S99G
VL: B1 VL with T55Q, N56R, Y94F
notes: also called 6E7 variant V12

Each binder was assayed against T1, human TREM2 (assay: 2nd screen, 2 nM).

Binding Signal	Binder
1.29 fold over 6E7 parental antibody	B1
5.67 fold over 6E7 parental antibody	B2
3.15 fold over 6E7 parental antibody	B3
2.57 fold over 6E7 parental antibody	B4
5.11 fold over 6E7 parental antibody	B5
1.25 fold over 6E7 parental antibody	B6
5.88 fold over 6E7 parental antibody	B7
2.23 fold over 6E7 parental antibody	B8
2.63 fold over 6E7 parental antibody	B9
4.72 fold over 6E7 parental antibody	B10
3.57 fold over 6E7 parental antibody	B11
2.3 fold over 6E7 parental antibody	B12
3.41 fold over 6E7 parental antibody	B13
1.15 fold over 6E7 parental antibody	B14
3.44 fold over 6E7 parental antibody	B15
0.58 fold over 6E7 parental antibody	B16
3.69 fold over 6E7 parental antibody	B17
4.22 fold over 6E7 parental antibody	B18
0.84 fold over 6E7 parental antibody	B19
1.95 fold over 6E7 parental antibody	B20
2.83 fold over 6E7 parental antibody	B21
1.42 fold over 6E7 parental antibody	B22
4 fold over 6E7 parental antibody	B23

What follows are binders tested against T1, human TREM2 (assay: 1st screen, 10 nM Ab).

Binding Signal	Binder
1.68 fold over 6E7 parental antibody	B1
5.5 fold over 6E7 parental antibody	B2
4.23 fold over 6E7 parental antibody	B3
4.71 fold over 6E7 parental antibody	B4
6.15 fold over 6E7 parental antibody	B5
2.73 fold over 6E7 parental antibody	B6
6 fold over 6E7 parental antibody	B7
2.55 fold over 6E7 parental antibody	B8
3.08 fold over 6E7 parental antibody	B9
5.23 fold over 6E7 parental antibody	B10
4.01 fold over 6E7 parental antibody	B11
2.42 fold over 6E7 parental antibody	B12
4.48 fold over 6E7 parental antibody	B13
1.31 fold over 6E7 parental antibody	B14
4.34 fold over 6E7 parental antibody	B15
1.74 fold over 6E7 parental antibody	B16
3.46 fold over 6E7 parental antibody	B17
5.37 fold over 6E7 parental antibody	B18
1.53 fold over 6E7 parental antibody	B19
1.97 fold over 6E7 parental antibody	B20
3.57 fold over 6E7 parental antibody	B21
2.64 fold over 6E7 parental antibody	B22
3.38 fold over 6E7 parental antibody	B23

The binders below were run against T1, human TREM2 (assay: 2nd screen, 100 nM).

Binding Signal	Binder
0.61 fold over 6E7 parental antibody	B24
0.5 fold over 6E7 parental antibody	B25
0.65 fold over 6E7 parental antibody	B26
0.48 fold over 6E7 parental antibody	B27
0.87 fold over 6E7 parental antibody	B28
1.11 fold over 6E7 parental antibody	B29
0.23 fold over 6E7 parental antibody	B30
0.79 fold over 6E7 parental antibody	B31
0.29 fold over 6E7 parental antibody	B32
0.36 fold over 6E7 parental antibody	B33
1.05 fold over 6E7 parental antibody	B34
0.52 fold over 6E7 parental antibody	B35

Each binder was assayed against T1, human TREM2 (assay: 1st screen, 110 nM Ab).

Binding Signal	Binder
0.25 fold over 6E7 parental antibody	B24
0.59 fold over 6E7 parental antibody	B25
0.22 fold over 6E7 parental antibody	B26
0.37 fold over 6E7 parental antibody	B27
0.31 fold over 6E7 parental antibody	B28
0.86 fold over 6E7 parental antibody	B29
0.17 fold over 6E7 parental antibody	B30
0.3 fold over 6E7 parental antibody	B31
0.2 fold over 6E7 parental antibody	B32
0.33 fold over 6E7 parental antibody	B33
0.35 fold over 6E7 parental antibody	B34
0.7 fold over 6E7 parental antibody	B35

What follows are binders tested against T1, human TREM2 (assay: 2nd screen, 10 nM).

Binding Signal	Binder
1.92 fold over 6E7 parental antibody	B1
5.69 fold over 6E7 parental antibody	B2
4.7 fold over 6E7 parental antibody	B3
4.64 fold over 6E7 parental antibody	B4
2.58 fold over 6E7 parental antibody	B36
5.81 fold over 6E7 parental antibody	B5
2.84 fold over 6E7 parental antibody	B6
5.51 fold over 6E7 parental antibody	B7
2.9 fold over 6E7 parental antibody	B8
3.61 fold over 6E7 parental antibody	B9
4.78 fold over 6E7 parental antibody	B10
4.04 fold over 6E7 parental antibody	B11
2.54 fold over 6E7 parental antibody	B12
4.16 fold over 6E7 parental antibody	B13
1.35 fold over 6E7 parental antibody	B14
4.36 fold over 6E7 parental antibody	B15
1.72 fold over 6E7 parental antibody	B16
3.49 fold over 6E7 parental antibody	B17
5.51 fold over 6E7 parental antibody	B18
1.67 fold over 6E7 parental antibody	B19
2.24 fold over 6E7 parental antibody	B20
3.47 fold over 6E7 parental antibody	B21
2.9 fold over 6E7 parental antibody	B22
3.44 fold over 6E7 parental antibody	B23

Reference: US20250326839A1 (VIGIL NEUROSCIENCE, published 2025)
